Patent US9114109B2, “Five-coordinate neuroglobin and use thereof as a blood substitute” (University of Pittsburgh—Of the Commonwealth System of …, priority 2009, dated 2015)
Read-outs that look alike come from different tables or passages of the source.

Assays:
[1] = tested on: isolated rat liver mitochondria; experiment: Hypoxic inhibition of respiration of isolated mitochondria; assay type: cell-based; settings: for inhibition of respiration, incubated alone (in words): nitrite 20 μM or protein 5 μM alone; for inhibition of respiration (cyanide = 100%): 5 μM protein with 20 μM nitrite, hypoxia
Procedure: (§1) Mitochondria were isolated from the livers of male Sprague Dawley rats and incubated with wild-type or mutant Ngb proteins in a sealed, stirred chamber at 37° C. State 3 respiration was stimulated with succinate (15 mM) and ADP (1 mM) and oxygen consumption was measured with a Clark-type oxygen electrode. To measure inhibition of respiration in hypoxic conditions, respiring mitochondria were allowed to consume oxygen until the chamber became anoxic and then the chamber lid was removed to allow the diffusion of air back into the chamber. The rate of mitochondrial respiration was greater than the rate of oxygen entering the chamber such that the oxygen electrode trace remained at zero while the mitochondria were respiring. Nitrite was added to the chamber prior to the removal of the lid and deviation of the oxygen trace from a zero reading signified a decrease in respiration rate. All experiments were performed under conditions where substrates were not limiting. The extent of respiratory inhibition was quantified by measuring the time from equilibration of the mitochondria with air to the time when the oxygen trace deviated from zero. This time to inhibition was expressed as a percentage of maximal inhibition, where 100% inhibition was defined as the time to inhibition in the presence of cyanide and the time to the exhaustion of substrates was used as a measure of 0% inhibition. Similar experiments were performed with SHSY5Y cells suspended in the respirometer and treated with the uncoupler FCCP (5 μM) to measure hypoxic inhibition of cellular respiration.

[2] = cited from earlier work
[3] = Anaerobic reaction of deoxygenated globins with excess nitrite (nitrite reductase kinetics, absorption / stopped-flow spectroscopy); assay type: biochemical; settings: for relative percentage of the total absorbance change (Soret peak 425 nm) in the first 60 minutes: 1 mM nitrite, 0.1 M HEPES pH 7.4, H64L-Ngb normalized to 100%; for rate of nitrite reduction (in words): cysteine to alanine mutants
Procedure: Oxygen contamination was prevented by application of positive argon pressure without a channel for gas escape. Concentrations of single species during reactions were determined by least squares deconvolution of the visible absorption spectrum into standard reference spectra using Microsoft Excel analysis. OxyNgb was included to confirm successful deoxygenation before the reaction. […] Fast kinetic studies were performed using an Applied Photophysics DX-17 stopped-flow instrument equipped with rapid-scanning diode array detection. […] To determine bimolecular rate constants all reactions were analyzed with Pro-K software (Applied Photophysics) using singular value decomposition followed by fitting of the reduced data matrix to a pseudo-first order kinetic model.

SHSY5Y cells = experiment: Hypoxic inhibition of cellular respiration in SHSY5Y cells expressing Ngb; assay type: cell-based; settings: cells stably transfected with GFP-tagged Ngb, nitrite added, FCCP
Procedure: as §1, with “Similar experiments were performed with SHSY5Y cells suspended in the respirometer and treated with the uncoupler FCCP (5 μM) to measure hypoxic inhibition of cellular respiration.” left out

[4] = Determination of nitrite binding constants to met-Ngb (difference spectra titration); settings: met-Ngb 10 μM, 200 mM phosphate buffer, pH 7.4, 25° C.; read-out: Kd (NO2^−)
Procedure: To determine the binding constant of nitrite to metNgb, 10 μM wild type and mutant Ngb in 200 mM phosphate buffer, pH 7.4, were incubated in a cuvette at 25° C. with increasing concentrations of nitrite and the UV—visible spectra were recorded after each increase in nitrite concentration. The constant KD for each protein was determined by interpolation of the absorbance data following procedures in Nicolis et al. (Biochem J 407:89-99, 2007).

[5] = cited from earlier work; remark: listed apart in the source
[6] = Midpoint redox potential of the thiol/disulfide couple in Ngb (GSH/GSSG gradient, Nernst fit of kobs); assay type: physicochemical; settings: 37° C., 0.1 M phosphate buffer pH 7.0, GSH/GSSG
Procedure: Wild-type and C55A mutant Ngb (50-60 μM) were incubated at 37° C. in anaerobic glove box with solutions containing various ratios of reduced (GSH) and oxidized (GSSG) glutathione, with the total GSH and GSSG concentration fixed at 25 mM in 0.1 M phosphate buffer pH=7.0. The GSH/GSSG ratio was varied to establish a gradient of redox potentials between −130 and −250 mV, calculated by the Nernst equation according to a midpoint reduction potential of −240 mV (Yi et al., J Biol Chem 284:20556-20561, 2009). After at least 1 hour incubation, glutathione was removed by passage through a G25 column and Ngb was reacted immediately with 10 mM nitrite in 0.1 M phosphate buffer pH=7.0 as described above. The observed rate constant determined at each glutathione ratio was fitted using the Nernst equation and the midpoint reduction potential of the thiol/disulfide couple of Ngb calculated.

[7] = Reaction of met-Ngb with nitrite to produce nitrosyl-Ngb (nitrite ferric heme reduction); assay type: biochemical; settings: met-Ngb with nitrite in the presence of dithionite
[8] = EPR spectroscopy of iron-nitrosyl-heme formation from nitrite; assay type: biochemical; settings: 1 mM nitrite, 40±5 μM protein
Procedure: Iron nitrosyl species were measured by EPR spectroscopy using a Bruker EMX 10/12 spectrometer operating at 9.4 GHz, 5-G modulation, 10.1-milliwatt power, 327.68-ms time constant and 163.84-s scan over 600 G at 110 K as described previously (Basu et al., J Biol Chem 283:32590-32597, 2008; Azarov et al., J. Biol. Chem. 280:[…], 2005). The concentrations of Mb and Ngb species were determined by performing the double integral calculation and comparing to standard samples.

[9] = Direct measurement of NO release in gas phase (chemiluminescence); assay type: biochemical; settings: 20 μM Ngb, 1 mM nitrite, anaerobic
From the text: Once a stable baseline was established Ngb was reacted with a known amount of nitrite as previously described (Huang et al., J Clin Invest 115:2099-2107, 2005).

[10] = nitrite 7-230 μM; cited from earlier work

O=NO [nitrite, reference compound]
inhibition of respiration, incubated alone (in words) [1]: No significant inhibition

B1: neuroglobin: heme containing, monomeric, 16.9 kDa protein; literature values of the background section (protein, listed as Homo sapiens)
chain: MERPEPELIRQSWRAVSRSPLEHGTVLFARLFALEPDLLPLFQYNCRQFSSPEDCLSSPEFLDHIRKVMLVIDAAVTNVEDLSSLEEYLASLGRKHRAVGVKLSSFSTVGESLLYMLEKCLGPAFTPATRAAWSQLYGAVVQAMSRGWDGE
oxygen affinity P50 ([2]; 20° C.): 1-2 mmHg | oxygen affinity P50 ([2]; after disulfide bond formation): ~1 mmHg | oxygen affinity P50 ([2]; before disulfide bond formation): about 9 mmHg

B2: WT SS: recombinant wild-type human neuroglobin (SEQ ID NO: 8), as purified with the C46-C55 disulfide bond formed (protein, listed as Homo sapiens)
chain: MERPEPELIRQSWRAVSRSPLEHGTVLFARLFALEPDLLPLFQYNCRQFSSPEDCLSSPEFLDHIRKVMLVIDAAVTNVEDLSSLEEYLASLGRKHRAVGVKLSSFSTVGESLLYMLEKCLGPAFTPATRAAWSQLYGAVVQAMSRGWDGE
modifications: C46-C55 disulfide
relative percentage of the total absorbance change (Soret peak 425 nm) in the first 60 minutes [3]: 38% | calculated BRC in the presence of dithionite ([3]; 10 mM nitrite, 10 μM deoxy-Ngb, 3 mM dithionite, pH 7.4, 100 mM phosphate buffer): 0.11 ± 0.01 M⁻¹ s⁻¹ | second-order bimolecular rate constant from linear fit of kobs versus nitrite concentration ([3]; nitrite 0.25-20 mM, 100 mM phosphate buffer, 25° C.): 0.12 ± 0.02 M⁻¹ s⁻¹ | acceleration of the reaction for each pH unit decrease ([3]; pH 6.5-8.0): 10 fold | slope of linear fit, order of rate dependence on [H^+] ([3]; pH 6.5-8.0): 0.96 | instantaneous bimolecular rate constant (BRC) of reaction of nitrite with Ngb ([3]; pH 7.4, 25° C., 10 μM deoxy-Ngb, 10 mM nitrite, no dithionite): 0.12 ± 0.02 M⁻¹ s⁻¹ | instantaneous bimolecular rate constant (BRC) of reaction of nitrite with Ngb ([3]; pH 7.4, 37° C.): 0.26 ± 0.02 M⁻¹ s⁻¹ | extent of respiration inhibition compared to cyanide (SHSY5Y cells): about 15% | Kd [4]: 6.2 ± 2.1 mM | kon of NO for the ferrous Ngb heme [5]: 10^8 M^−1 s^−1 | midpoint redox potential of the C46/C55 thiol/disulfide couple [6]: −194±3 mV | BRC of nitrite ferric heme reduction [7]: 0.0005 ± 0.0005 | inhibition of respiration (cyanide = 100%) [1]: 78±6% | inhibition of respiration, incubated alone (in words) [1]: No significant inhibition

B3: WT SH: wild-type human neuroglobin without disulfide bond, cysteines reduced by incubation with 10 mM DTT (protein, UniProt Q9NPG2 1-151, looked up)
Neuroglobin: MERPEPELIRQSWRAVSRSPLEHGTVLFARLFALEPDLLPLFQYNCRQFSSPEDCLSSPEFLDHIRKVMLVIDAAVTNVEDLSSLEEYLASLGRKHRAVGVKLSSFSTVGESLLYMLEKCLGPAFTPATRAAWSQLYGAVVQAMSRGWDGE
modifications: cysteines reduced with DTT
notes: wild-type human neuroglobin without disulfide bond, cysteines reduced by incubation with 10 mM DTT
rate of iron-nitrosyl-Ngb / NO formation by EPR (in words) [8]: slowed the rate of iron-nitrosyl-Ngb formation | relative percentage of the total absorbance change (Soret peak 425 nm) in the first 60 minutes [3]: 20% | rate of nitrite reduction after reduction of the disulfide bond ([3]; cysteines reduced with 10 mM DTT, 25° C., pH 7.4): 0.062 ± 0.005 M⁻¹ s⁻¹ | slowing of nitrite reduction rate by reduction of the disulfide bond ([3]; relative to oxidized wild type, 25° C., pH 7.4): about 2 fold | Kd [4]: 12.6 ± 3.3 mM | BRC of nitrite ferric heme reduction [7]: 0.0002 ± 0.0005

B4: C55A: recombinant human neuroglobin mutant with cysteine 55 replaced by alanine, six-coordinate (protein, UniProt Q9NPG2 1-151, looked up, variant C55A)
Neuroglobin: MERPEPELIRQSWRAVSRSPLEHGTVLFARLFALEPDLLPLFQYNCRQFSSPEDALSSPEFLDHIRKVMLVIDAAVTNVEDLSSLEEYLASLGRKHRAVGVKLSSFSTVGESLLYMLEKCLGPAFTPATRAAWSQLYGAVVQAMSRGWDGE
rate of NO detected in gas phase (in words) [9]: significantly decreased | relative percentage of the total absorbance change (Soret peak 425 nm) in the first 60 minutes [3]: 18% | rate of nitrite reduction (in words) [3]: slowed down the rate of nitrite reduction to similar rates observed with Ngb having fully reduced cysteines | Kd [4]: 30.1 ± 4.5 mM | BRC of nitrite ferric heme reduction [7]: 0.0002 ± 0.0005 | inhibition of respiration (cyanide = 100%) [1]: 62±4%

B5: mouse neuroglobin: deoxy mouse neuroglobin of a cited study (Petersen et al., 2008) (protein, UniProt Q9ER97 1-151, looked up)
Neuroglobin: MERPESELIRQSWRVVSRSPLEHGTVLFARLFALEPSLLPLFQYNGRQFSSPEDCLSSPEFLDHIRKVMLVIDAAVTNVEDLSSLEEYLTSLGRKHRAVGVRLSSFSTVGESLLYMLEKCLGPDFTPATRTAWSRLYGAVVQAMSRGWDGE
apparent second-order rate constant [10]: 5.1 ± 0.4 M⁻¹ s⁻¹

B6: C46A: recombinant human neuroglobin mutant with cysteine 46 replaced by alanine (protein, UniProt Q9NPG2 1-151, looked up, variant C46A)
Neuroglobin: MERPEPELIRQSWRAVSRSPLEHGTVLFARLFALEPDLLPLFQYNARQFSSPEDCLSSPEFLDHIRKVMLVIDAAVTNVEDLSSLEEYLASLGRKHRAVGVKLSSFSTVGESLLYMLEKCLGPAFTPATRAAWSQLYGAVVQAMSRGWDGE
rate of nitrite reduction (in words) [3]: slowed down the rate of nitrite reduction to similar rates observed with Ngb having fully reduced cysteines

B7: Myoglobin: horse heart myoglobin, purified by Sephadex G-25 gel filtration (protein, UniProt P68082 2-154, looked up)
Myoglobin: GLSDGEWQQVLNVWGKVEADIAGHGQEVLIRLFTGHPETLEKFDKFKHLKTEAEMKASEDLKKHGTVVLTALGGILKKKGHHEAELKPLAQSHATKHKIPIKYLEFISDAIIHVLHSKHPGDFGADAQGAMTKALELFRNDIAAKYKELGFQG
BRC of myoglobin reaction with nitrite ([3]; 100 mM phosphate buffer with EDTA, pH 7.4, 25° C.): 2.9 ± 0.2 M⁻¹ s⁻¹
